Laboratory results: US20230054274A1, “PEPTIDE-MHC COMPLEXES” (priority 2019, published 2023)

Molecular target: HLA-E*01:03 (Homo sapiens, UniProt P13747)
Assay: Stability of native peptide-HLA-E complexes by loss of ILT2 binding over time (SPR)

Chain of HLA-E*01:03 (P13747 with tags, fused parts or gaps): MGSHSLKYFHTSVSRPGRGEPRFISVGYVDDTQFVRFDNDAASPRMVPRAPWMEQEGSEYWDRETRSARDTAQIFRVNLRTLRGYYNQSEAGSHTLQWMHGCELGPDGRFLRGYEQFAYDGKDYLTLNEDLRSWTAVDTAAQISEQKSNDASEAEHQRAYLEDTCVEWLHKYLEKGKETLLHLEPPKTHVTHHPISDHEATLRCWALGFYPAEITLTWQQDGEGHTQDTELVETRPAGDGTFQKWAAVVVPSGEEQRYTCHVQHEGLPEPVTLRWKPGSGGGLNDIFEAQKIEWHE
Chain of HLA-E*01:03 (P61769 with tags, fused parts or gaps partner): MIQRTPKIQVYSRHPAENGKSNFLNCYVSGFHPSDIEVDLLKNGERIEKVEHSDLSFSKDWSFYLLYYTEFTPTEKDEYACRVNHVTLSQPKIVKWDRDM

| T 1/2 (h) (HLA-E*01:03) (native unmodified peptide in complex with HLA-E*01:03, half-life by ILT2 binding) | Sequence | T 1/2 (h) (HLA-E*01:03) ([…], half-life by ILT2 binding) |
| --- | --- | --- |
|  | RMYSPVSIL [HIV (Gag 275) peptide known to be presented by HLA-E] | 0.27 |
|  | VMATRRNVL [MTB peptide known to be presented by HLA-E] | 0.57 |
|  | ILPSDAPVL [MTB peptide known to be presented by HLA-E] | 0.70 |
| 3.00 | VMAPRTLVL |  |
|  | VMAPRTLIL | 3.20 |
